Experimental findings from the nanobody polyreactivity screen of Harvey et al. (2022) are described below.

The nature of this data set: yeast display, Sf9 membrane polyspecificity reagent, FACS + sequencing; frameworks hold sequencing errors. Summed up:
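Genes from sorted yeast were amplified by colony PCR, read by MiSeq 2 × 250 sequencing and filtered on CDR length. These cells carried a synthetic nanobody library in Saccharomyces cerevisiae BJ5465 and were sorted by FACS into low and high (top ~1%) gates on anti-HA and streptavidin fluorescence. Polyreactivity is labelled according to the gate of origin.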
Take “QDQLLESGGGLVQAGGSLRLSCAASGRTFRYYTMGWYRQAPGKEREFVAAISSTGGTYYADSVKGRFTISRDNAKNTVYLQMNSLKPEDTAVYYCAATFIQFVVNVELYDYDYWGQGTQVTVSS”: the “polyreactivity (PSR sort gate)” value is recorded as “low polyreactivity”.
In the case of “QDQLVDSGGCLVQAGGSLSLSCAASGNTFNIYAMGWYRQAPGKEREFVAAITVSDTSTYYADSVKGRFTISRDNAKNTVYLKMHSLKPEDTSVYYCNADWWCTYDYYYWGQGTQGTVSS”, the “polyreactivity (PSR sort gate)” value is “low polyreactivity”.
For “QDQLVDSGGGLDQAGGSLRLSCAATGRTIGINAMGWYRQAPGKERELVAVISFGDGGTYSADSVKGRFTISRDNAKNTVYLQMNSLKPEDTAVYYCATDYQSTSVWGGHFVINPFDYWGQGTQVTVSS”, the “polyreactivity (PSR sort gate)” value is “low polyreactivity”.
Consider “QDQLVDSGGGLVQAGGSLRFSCAASGFIFRFNAMGWYRQAPGKERELVADIRWSSGSTYYADSVKGRYTISRDNAKNTVYLEMNSLKPEDTAVFYCAVTYLRVHYKFTPFDYWGQGTQVTVSS”, for which the “polyreactivity (PSR sort gate)” value is “low polyreactivity”.
In the case of “QDQLVDSGGGLVQAGGSLRLSCAASGRISGYYAMGWYRQAPGKERELVASITYRGGSTYYADSVKGRFTISRDNAKNTVYLQINSLKPEDTAVYSCNFRYRPNRGSIGQPNSGKNWYDYWGLGTQVTVSS”, the “polyreactivity (PSR sort gate)” value was “high polyreactivity”.
Regarding “QDQLVDSGGGLVQAGGSLRLSCAASGRTFYTYAMGWYRQAPGKEREFVARISKRGGGTYYADSVKGRFTISRENAKNTVDLQMNSLIPEDTAVYYCNAGVPSAMDYWGQGTQLTVSS”, the “polyreactivity (PSR sort gate)” value is “high polyreactivity”.
In the case of “QDQLVDSGGGLVQAGGSLRLSCAASGSIFYLYAMGWYRQAPGKEREFVAAITWRGGSTYYADSVKGRFTISRDNAKNTVYLQLNSLKPEDTAVYYCGAKLPRVYGYGFEYWGQGTQVTVSS”, the “polyreactivity (PSR sort gate)” value is recorded as “low polyreactivity”.
Consider “QDQLVDSGGGLVQAGGSLRLSCAASGSIYDPYAMGWYRQAPGKERELVATIDWDDASTYYADSVKGRFTISRDNAKNTVYLQMNSLKPEDTAVYYCATRDRAGYYYWGQGTQVTVSS”, for which the “polyreactivity (PSR sort gate)” value is given as “high polyreactivity”.
Consider “QDQLVDSGGGLVQAGGSLRLSCASSGGTFSYYTMGWYRQAPGKERELVARISKNGGRTYYADSVKGRFTISRDNAKNTVYLQLNSLKPEDTAVYYCNAAGRTYDFSGGRTMEYWGQGTQVTVSS”, for which the “polyreactivity (PSR sort gate)” value is recorded as “high polyreactivity”.
On to “QDQLVDSRGGLVKAGGSLRLSCSASGRTFYYYAMGWSRQAPGQERELVADINTRVTSTYYADSVKGRFTISRDNAKNTVYLQMNSLKPEDTGVYYCAVDPYGDSWEDWLRNYYYGYDYWGQGTQVTVSS”, for which the “polyreactivity (PSR sort gate)” value is “low polyreactivity”.
Consider “QDQLVDSRGGLVQAGGSLRLSCAASGLIFRSYAMGWSRQAPGKERELVAAITDLFWSTYYADSVKGRFTISRDYAKNTVYLQMNSLKPEDNAVFYCARDDWVYTNVEMDYWGQGTQVTVSS”, for which the “polyreactivity (PSR sort gate)” value is listed as “high polyreactivity”.
With “QDQLVESAGGLVQAGGSLRLSCAASGRTFRAYAMGWYRQAPGKAMELVAAISRNGGTTYYADSVKGRFTMSRDNAKNTVYLQMNSLKPEDTAVSYCNARAGTKTGLKSDYWGQGTQVTVSS”, the “polyreactivity (PSR sort gate)” value is “high polyreactivity”.
As for “QDQLVESCGCLVQAGGSLRLSCASSGSTFGTYAMGWYRQAPGKERELVAAISSGDSTTYADSVKGRFTISRDNAKNTVYFQRNSLKQVDTAVYYCAARTFLMRNGGYNYWGEGTQVTVSS”, the “polyreactivity (PSR sort gate)” value is “low polyreactivity”.
“QDQLVESCGGLVQAGGSLRLICAASGITFRYNAMGWYRQAPGKERELVAAITFSGGSTYYADSVKGRFTISRDNAKNTVYLQMISLKPEDTAVYYCAARKARPPFPHPFDYYWGQGTQVTVSS”: the “polyreactivity (PSR sort gate)” value is given as “low polyreactivity”.
Regarding “QDQLVESGAGLVQAGGSLRLSCAASGRIFTPYAMGGYRHAPRKERELVAVIRDGSTYFADSVKGRFTISRDNAKNTVYFQMKSLKPEETAGYYCRYDIWVWWSGAYDYWGQGTQVTVSS”, the “polyreactivity (PSR sort gate)” value is recorded as “low polyreactivity”.
For the sequence “QDQLVESGGALVQAGGSLLLSCAASGITFGDHAMGWYRQAPGKEWELFAAISWSGDRTFYADSVTGRFTISRDNAKNTVSLQMNSLNPADTAVYYCNAEIGWHNEGRLSTYDYWGQGTQVTVSS”, the “polyreactivity (PSR sort gate)” value is reported as “low polyreactivity”.
For “QDQLVESGGCLVQAGGSLRLSCAASGSIFKRNAMGWYRQAPGKERELVASISWSGTRTYYADSVKGRFTISRDNAKNTVYLQMNSLKPEDTAVYYCARRIYGGHPSQSTQGDFYYWGHGTQVTVSS” the value was “high polyreactivity”; for “QDQLVESGGGIVQAGGSLRLSCAASGRIFYGYAMGWYRQAPGKERELVAAITSRGTSTYYADSVKGRFTISRDNAKNTVYLQMNSLKPEDTAVFYCNAAYGRSFYSKVFSYNYWGQGTQVTVSS”, “high polyreactivity”; for “QDQLVESGGGIVQAGVSLRLSCAANGIIFDYYAMGWYRQAPGKERELVAAINRNGGTTYYADSVKGRFTISRDNAKNTVYLQMICLKPEDTAVYYCAAVDFGWSTYYYWGQGTQVTVAS”, “high polyreactivity”.
Consider “QDQLVESGGGLDQARGSLRLICAASGSTFKYYAMPSYRQAPGKERELVAAISWSGGNTYYADSVKGRFTISRENAKNTDYLQMNCLKPEDTAVYYCAADTKVGNGIKFDYWGQGTHVTVSS”, for which the “polyreactivity (PSR sort gate)” value was “high polyreactivity”.
As for “QDQLVESGGGLLQAGGSLRLSCAASGRTFRYYAMGWYRQAPGKERELVAAISWSGSSTYYADSVKGRFTISRDNAKNTVYLQMNSLKAEDTAVYDCNAKGVRGKYFDYSRVSAYDYWGQGTQVTVSS”, the “polyreactivity (PSR sort gate)” value is recorded as “low polyreactivity”.
As to “QDQLVESGGGLLQAGGSLSLSCAASGFTIYGYAMVWYRQAPGKERELVAAITNSGGRTYYADSVKGRFTISRDNAKNSVYLQMKSLKPEFTAVYFCAVDDLRGYDYWGQGTQVTVSS”, the “polyreactivity (PSR sort gate)” value is recorded as “low polyreactivity”.
As for “QDQLVESGGGLVEAGGSLRLSCAASGITFSWYAMVWKRQAPGKEREFVAAISPGGTSTYYADSVKGRFTISRDNAKKTVYLQMNSLKPEDTAFYYCAVQWLYPYDYWGHGTQVTVSS”, the “polyreactivity (PSR sort gate)” value is “high polyreactivity”.
Regarding “QDQLVESGGGLVHAGGSLRLSCAASGLTFGRNAMGWYRQAPGKERELVAAISRSGGRTSYADSVKGRFTISRDNAKYTVYLQMHSLKPEDTAVYYCAARSDVFTHDYWGQGTQVTVSS”, the “polyreactivity (PSR sort gate)” value is recorded as “high polyreactivity”.
As to “QDQLVESGGGLVHAGGSLRLSCAASGSTFSIYAMGWYRQAPGKERELVAAIPYSGGSTYYADSVKGRFTISRDNAKNTVYLQMHSLKPEDTAVNYCAAEVYDSRWWYSGATDDYWGQGTQVSVSS”, the “polyreactivity (PSR sort gate)” value is “high polyreactivity”.
In the case of “QDQLVESGGGLVQAAGSLRLSCAASGSTFLGNALGWYRQARGKERQLVAAISGRGGSTYYADSVKGRFTISRDNAKNTVYVQMNSLKPEDTAVYYCNAVGRRVRTWHDYDYWGKGTQVTVSS” it was “high polyreactivity”; in that of “QDQLVESGGGLVQAGASLRLSCAASGFTFHNKFKGWYRQAPGKERELVATISKSGGSTYYADSVKGRFTISRDYAKNTVNLQMNSLKPEDTAVYYCARRYRDYGRYGYWGQGTQVTVSS”, “high polyreactivity”; in that of “QDQLVESGGGLVQAGCSLRLSCAASGSTFHLNAMGWYRQAPGKERELVAAITWSGGSTYYADSVKGRFTISRDNAKNTVYLQMNSLKPEDTAVYYCNAGLGKFPVKGGRRYRLDYWGQGTQVTVSS”, “low polyreactivity”.
In the case of “QDQLVESGGGLVQAGGRLRLSCAASGSIFNYYTMGWYRQAPGKETELVAAITWSGGRTYYADSVKGRFTISRDNAKNTVYLQMNSLKPEDTAVYYCNAVAYKPGGGEDFESWGQGTQVTVSS” it was “high polyreactivity”.
In the case of “QDQLVESGGGLVQAGGRLRLSCAASGSTFRRYAMGWYRQAPGTERDWVAAISGGGGSTYYADSVKGRFTISRDNAKNTVYLQMNSLKPEDTAVYYCNIPFPYYPDGPNGYDYWGQGTQVTVSS” it was “low polyreactivity”; in that of “QDQLVESGGGLVQAGGSHRLSCAASGRIFARNAMGWYRQAPGKERELVATIRVGGGSTYYADSVKGRFTISRDNAKNTVYLQLNSLKPEDTAVYDCAVRQLYSYPGDRRGYYWGQGTQVTVSS”, “low polyreactivity”; in that of “QDQLVESGGGLVQAGGSIRLSCAASGSILRSNALGWYRQAHVQERELVAAITFNGGSTYADSVKGRFTISRDNAKNNVYLQMNSLKPVDTSVSYCATGDGPCLFDYWGQGTQVTVSS”, “low polyreactivity”.
Regarding “QDQLVESGGGLVQAGGSIRLSCAASGYIFLLYDMGWYRQAPGKERDMVATITSGGGTYYADSVKGPFTISRDNAKNTVYLQMNSLKPEDTAVYYCNADLYRWTGRSYWDKHGYWGQVTQVTVSS”, the “polyreactivity (PSR sort gate)” value is “low polyreactivity”.
On to “QDQLVESGGGLVQAGGSLRISCAASGITLEYNAMGGYRQAPGKERELVATIRSGGSTNYADSVKVRFTISRDNANNTVYLQMNSLKPEDTAVYYCAANHNTEYDWGQGTQVTVSS”, for which the “polyreactivity (PSR sort gate)” value is “high polyreactivity”.
On to “QDQLVESGGGLVQAGGSLRISCAASGSIFDVNAMGWYRQAPGKERELVAAISDSGGSTYYADSVKGRFTISRDNAKNTVYLEMNSLKPVDTAVYYCNADWSWYNYYDFDYWGQGTQVTVSS”, for which the “polyreactivity (PSR sort gate)” value is “low polyreactivity”.
As for “QDQLVESGGGLVQAGGSLRISCAASGSIFTYNAMGWYREAPGKERELVAAINTSGSTNYADSVKGRFTISRDNAKNTVYLQKNSLKPEDTAVYYCAADYPYWRRPYSRYGYWGQGTQVTVSS”, the “polyreactivity (PSR sort gate)” value was “low polyreactivity”.
Consider “QDQLVESGGGLVQAGGSLRISIAASARTFRDYVMGWSRQAPGKERELVAAISTRGASTYYADSVKGRFTISRDNAKNTVYLQMNTLKPEDTADYYCAARSTRRGNEYDYWGQGTQVTVSS”, for which the “polyreactivity (PSR sort gate)” value is reported as “high polyreactivity”.
For “QDQLVESGGGLVQAGGSLRLICAASASTFTRYAMGWYRQAPGKERELVACITGRGGSTYYADSVKGRFPISRDYAKNTVYLQMNCLKPEDTAVYYCARAEGKCPYSRYWPYRGGYDYWGQGTQVTRSS” the value was “high polyreactivity”; for “QDQLVESGGGLVQAGGSLRLICAASGRTFNRYGMGWNRQATGKERELVASITSGGSTNYADSVKGRFTISRDNAKNNVYLQMNSLKLEDTAVYYCAKRSIGRYPRTYDYWGQGTQVTVSS”, “low polyreactivity”.
In the case of “QDQLVESGGGLVQAGGSLRLICAASGRTFYPYVMGWYRQAPGKERDLVAAITDSGGNTYYADSVKGRFTISRDNAKNTVYLQMNSLKPEDTAVYYCNARFYYPSRRGTFQYNYWGQGTQVTVSS” it was “low polyreactivity”.
